The test has as its target T1, osteoprotegerin (OPG) (UniProt O00300 22-401).
T1 construct: osteoprotegerin (OPG)
T1 sequence (looked up): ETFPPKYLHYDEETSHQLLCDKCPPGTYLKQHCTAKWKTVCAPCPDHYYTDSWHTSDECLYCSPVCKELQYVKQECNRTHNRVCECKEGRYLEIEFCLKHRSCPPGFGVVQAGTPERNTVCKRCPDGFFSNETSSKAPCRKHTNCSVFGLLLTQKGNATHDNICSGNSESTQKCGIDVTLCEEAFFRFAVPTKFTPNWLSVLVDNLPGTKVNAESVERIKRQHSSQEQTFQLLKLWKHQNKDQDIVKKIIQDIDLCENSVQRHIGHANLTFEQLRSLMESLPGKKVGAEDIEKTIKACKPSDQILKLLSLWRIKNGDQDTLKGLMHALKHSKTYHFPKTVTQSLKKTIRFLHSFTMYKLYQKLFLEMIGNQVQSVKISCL
As to the kind of experiment: non-cell based binding assay; binding to human RANKL, as previously described (ref. 14); format and conditions not told.

The Kd is a measure of binding affinity in units of concentration. Read a high Kd as weaker binding.

B1: human receptor activator of nuclear factor kappa B ligand (RANKL) (ligand, UniProt O14788 140-317, looked up)
chain: IRAEKAMVDGSWLDLAKRSKLEAQPFAHLTINATDIPSGSHKVSLSSWYHDRGWAKISNMTFSNGKLIVNQDGFYYLYANICFRHHETSGDLATEYLQLMVYVTKTSIKIPSSHTLMKGGSTKYWSGNSEFHFYSINVGGFFKLRSGEEISIEVSNPSLLDPDQDATYFGAFKVRDID
notes: also called human RANKL; huRANKL; source: recombinant protein huRANKL, provided by Amgen Inc
The molecule B1 showed a Kd of about 0.63 nM.

The values above are taken from publication PMC8124205, “Immuno-PET Molecular Imaging of RANKL in Cancer” (Cancers, 2021).
